{"source": "patent US12016906B2", "about": "“Pharmaceutical composition for anaemia” (Frimline Private Limited, priority 2018, dated 2024)", "molecules": {"B1": {"name": "Lactoferrin: multifunctional globular glycoprotein of the transferrin family, about 80 kDa; individual component group (protein, UniProt P02788 20-710, looked up)", "Lactotransferrin": "GRRRSVQWCAVSQPEATKCFQWQRNMRKVRGPPVSCIKRDSPIQCIQAIAENRADAVTLDGGFIYEAGLAPYKLRPVAAEVYGTERQPRTHYYAVAVVKKGGSFQLNELQGLKSCHTGLRRTAGWNVPIGTLRPFLNWTGPPEPIEAAVARFFSASCVPGADKGQFPNLCRLCAGTGENKCAFSSQEPYFSYSGAFKCLRDGAGDVAFIRESTVFEDLSDEAERDEYELLCPDNTRKPVDKFKDCHLARVPSHAVVARSVNGKEDAIWNLLRQAQEKFGKDKSPKFQLFGSPSGQKDLLFKDSAIGFSRVPPRIDSGLYLGSGYFTAIQNLRKSEEEVAARRARVVWCAVGEQELRKCNQWSGLSEGSVTCSSASTTEDCIALVLKGEADAMSLDGGYVYTAGKCGLVPVLAENYKSQQSSDPDPNCVDRPVEGYLAVAVVRRSDTSLTWNSVKGKKSCHTAVDRTAGWNIPMGLLFNQTGSCKFDEYFSQSCAPGSDPRSNLCALCIGDEQGENKCVPNSNERYYGYTGAFRCLAENAGDVAFVKDVTVLQNTDGNNNEAWAKDLKLADFALLCLDGKRKPVTEARSCHLAMAPNHAVVSRMDKVERLKQVLLHQQAKFGRNGSDCPDKFCLFQSETKNLLFNDNTECLARLHGKTTYEKYLGPQYVAGITNLKKCSTSPLLEACEFLRK"}}, "assay_type_in_all_cases": "in vivo, male Wistar rats (Rat Rattus)", "conditions_in_all_cases": "IDD rats", "key": {"[1]": {"tested_on": "Iron deficient Diet (IDD) induced anaemia in rats", "assay": "Ferroportin level in IDD induced anaemia in rats", "protocol": "(§1) Screening of pharmaceutical composition/formulation comprising combination of Lactoferrin+Guanosine Nucleotide or a pharmaceutically acceptable salt thereof with or without optional ingredients against Iron deficient Diet (IDD) induced anaemia in rats. For this study different parameters like Hb Level, Hematocrit level, Serum Iron level, Ferroportin level, Serum Ferritin level, Hepcidin level and IL-6 Level were evaluated. The following trials were carried out by taking reference from Wang Xl, Liu S, Xu H, Yan W, Effects of recombinant human lactoferrin on improving the iron status of IDA. Wei Sheng Yan Jiu. […]\n(§2) 72 male Wistar rats (Rat Rattus) (6 per group) were maintained in animal house in a light/dark atmosphere based on a 12 hour cycle having temperature and relative humidity in the range of 22±3° C. and 30-70% respectively. To maintain the appropriate conditions, temperature and relative humidity were recorded three times daily. […]\n(§3) After 5 weeks (35 days) of respective dietary intervention, once again hemoglobin level, HCT % level and serum iron level were analyzed and then, respective drug treatment was started with continuous administration of Iron deficient diets in all groups as mentioned above in Table 1. […]"}, "[2]": {"tested_on": "Iron deficient Diet (IDD) induced anaemia in rats", "assay": "IL-6 level in IDD induced anaemia in rats", "protocol": "(§4) Screening of pharmaceutical composition/formulation comprising combination of Lactoferrin+Guanosine Nucleotide or a pharmaceutically acceptable salt thereof with or without optional ingredients against Iron deficient Diet (IDD) induced anaemia in rats. For this study different parameters like Hb Level, Hematocrit level, Serum Iron level, Ferroportin level, Serum Ferritin level, Hepcidin level and IL-6 Level were evaluated. The following trials were carried out by taking reference from Wang Xl, Liu S, Xu H, Yan W, Effects of recombinant human lactoferrin on improving the iron status of IDA. Wei Sheng Yan Jiu.\nas §2, with “daily. All animals were acclimatized for a minimum period of five days.” for “daily.”\nas §3"}, "[3]": {"tested_on": "Iron deficient Diet (IDD) induced anaemia in rats", "assay": "Hematocrit % level in IDD induced anaemia in rats", "protocol": "as §4, with “Jiu. 2012 January; 41(1):13-7, 22 and Nora M. El-Sheikh, the Protective Effect of Soybean and Thyme on Iron Deficiency Anemia in Rats, the Egyptian Journal of Hospital Medicine (2008) Vol., 33: 510-520 as available.” for “Jiu.”\nas §2, with “daily. All animals were acclimatized for a minimum period of five days. Animals were maintained in the test setup for minimum 30 minutes once during the acclimatization period to reduce the stress. Animals were weighed on the day of receipt and observed daily for abnormalities if any.” for “daily.”\n(§5) After 3 weeks of respective dietary intervention, the level of Hemoglobin was determined in each animal. […]\n(§6) After 5 weeks (35 days) of respective dietary intervention, once again hemoglobin level, HCT % level and serum iron level were analyzed and then, respective drug treatment was started with continuous administration of Iron deficient diets in all groups as mentioned above in Table 1.\n(§7) After 9 weeks of respective drug treatment (total after 14 weeks from start of the study—98 days), various biochemical parameters were measured to evaluate the effect of respective individual and combination therapy on iron deficient anaemia model (G3 to G12). […]"}, "[4]": {"tested_on": "Iron deficient Diet (IDD) induced anaemia in rats", "assay": "Hb level in IDD induced anaemia in rats", "protocol": "as §4\n(§8) 72 male Wistar rats (Rat Rattus) (6 per group) were maintained in animal house in a light/dark atmosphere based on a 12 hour cycle having temperature and relative humidity in the range of 22±3° C. and 30-70% respectively. To maintain the appropriate conditions, temperature and relative humidity were recorded three times daily. All animals were acclimatized for a minimum period of five days. Animals were maintained in the test setup for minimum 30 minutes once during the acclimatization period to reduce the stress. Animals were weighed on the day of receipt and observed daily for abnormalities if any. Detailed records of acclimatization were also maintained. Rats were housed 6 per cage in clean, sterilized Polypropylene cages. […]\nAfter 3 weeks of respective dietary intervention, the level of Hemoglobin was determined in each animal.\nas §6, §7"}, "[5]": {"tested_on": "Iron deficient Diet (IDD) induced anaemia in rats", "assay": "Hepcidin level in IDD induced anaemia in rats", "protocol": "as §1, §2, §3"}, "[6]": {"tested_on": "Iron deficient Diet (IDD) induced anaemia in rats", "assay": "Serum ferritin level in IDD induced anaemia in rats", "protocol": "as §1, §2, §3"}, "[7]": {"tested_on": "Iron deficient Diet (IDD) induced anaemia in rats", "assay": "Serum iron level in IDD induced anaemia in rats", "protocol": "as §4, with “Jiu. 2012 January; 41(1):13-7, 22 and Nora M. El-Sheikh, the Protective Effect of Soybean and Thyme on Iron Deficiency Anemia in Rats, the Egyptian Journal of Hospital Medicine (2008) Vol., 33: 510-520 as available.” for “Jiu.”\nas §8, with “any.” for “any. Detailed records of acclimatization were also maintained. Rats were housed 6 per cage in clean, sterilized Polypropylene cages.”\nas §5, §6, §7"}, "[8]": {"conditions": "Day 98, after 9 weeks of treatment p.o."}}}
{"molecule": "B1", "values": [{"measurement": "Ferroportin Post-treatment", "setting": "[1]; [8]", "result": 3.6, "unit": "ng/mL"}, {"measurement": "Ferroportin % Change compared to Disease control", "setting": "[1]; Day 98", "result": 31.4, "unit": "%"}, {"measurement": "IL-6 Post-treatment", "setting": "[2]; [8]", "result": 57.2, "unit": "pg/mL"}, {"measurement": "IL-6 % Change compared to Disease control", "setting": "[2]; Day 98", "result": "−8.2", "unit": "%"}, {"measurement": "Hematocrit Pre-treatment", "setting": "[3]; Day 35, before treatment", "result": 35.33, "unit": "%"}, {"measurement": "Hematocrit Post-treatment", "setting": "[3]; [8]", "result": 40.17, "unit": "%"}, {"measurement": "Hematocrit % Change compared to Disease control", "setting": "[3]; Day 98", "result": 56.3, "unit": "%"}, {"measurement": "Hemoglobin Pre-treatment", "setting": "[4]; Day 35, before treatment", "result": 8.8, "unit": "g/dL"}, {"measurement": "Hemoglobin Post-treatment", "setting": "[4]; [8]", "result": 10.3, "unit": "g/dL"}, {"measurement": "Hemoglobin % Change compared to Disease control", "setting": "[4]; Day 98", "result": 58.8, "unit": "%"}, {"measurement": "Hepcidin Post-treatment", "setting": "[5]; [8]", "result": 3830, "unit": "ng/mL"}, {"measurement": "Hepcidin % Change compared to Disease control", "setting": "[5]; Day 98", "result": "−13.0", "unit": "%"}, {"measurement": "Ferritin Post-treatment", "setting": "[6]; [8]", "result": 680, "unit": "ng/mL"}, {"measurement": "Ferritin % Change compared to Disease control", "setting": "[6]; Day 98", "result": "−8.1", "unit": "%"}, {"measurement": "Serum IRON Pre-treatment", "setting": "[7]; Day 35, before treatment", "result": 3.08, "unit": "ppm"}, {"measurement": "Serum IRON Post-treatment", "setting": "[7]; [8]", "result": 5.31, "unit": "ppm"}, {"measurement": "Serum IRON % Change compared to Disease control", "setting": "[7]; Day 98", "result": 99.1, "unit": "%"}]}
